# Target: SpCas9 nuclease (Streptococcus pyogenes) (UniProt Q99ZW2)
# Experiment: EMSA
# Details: 30 nM Cas9, 30 nM RNA, NEBuffer 3.1, 25 C then 37 C; negative control
# UniProt Q99ZW2, sequence (Q99ZW2 whole entry): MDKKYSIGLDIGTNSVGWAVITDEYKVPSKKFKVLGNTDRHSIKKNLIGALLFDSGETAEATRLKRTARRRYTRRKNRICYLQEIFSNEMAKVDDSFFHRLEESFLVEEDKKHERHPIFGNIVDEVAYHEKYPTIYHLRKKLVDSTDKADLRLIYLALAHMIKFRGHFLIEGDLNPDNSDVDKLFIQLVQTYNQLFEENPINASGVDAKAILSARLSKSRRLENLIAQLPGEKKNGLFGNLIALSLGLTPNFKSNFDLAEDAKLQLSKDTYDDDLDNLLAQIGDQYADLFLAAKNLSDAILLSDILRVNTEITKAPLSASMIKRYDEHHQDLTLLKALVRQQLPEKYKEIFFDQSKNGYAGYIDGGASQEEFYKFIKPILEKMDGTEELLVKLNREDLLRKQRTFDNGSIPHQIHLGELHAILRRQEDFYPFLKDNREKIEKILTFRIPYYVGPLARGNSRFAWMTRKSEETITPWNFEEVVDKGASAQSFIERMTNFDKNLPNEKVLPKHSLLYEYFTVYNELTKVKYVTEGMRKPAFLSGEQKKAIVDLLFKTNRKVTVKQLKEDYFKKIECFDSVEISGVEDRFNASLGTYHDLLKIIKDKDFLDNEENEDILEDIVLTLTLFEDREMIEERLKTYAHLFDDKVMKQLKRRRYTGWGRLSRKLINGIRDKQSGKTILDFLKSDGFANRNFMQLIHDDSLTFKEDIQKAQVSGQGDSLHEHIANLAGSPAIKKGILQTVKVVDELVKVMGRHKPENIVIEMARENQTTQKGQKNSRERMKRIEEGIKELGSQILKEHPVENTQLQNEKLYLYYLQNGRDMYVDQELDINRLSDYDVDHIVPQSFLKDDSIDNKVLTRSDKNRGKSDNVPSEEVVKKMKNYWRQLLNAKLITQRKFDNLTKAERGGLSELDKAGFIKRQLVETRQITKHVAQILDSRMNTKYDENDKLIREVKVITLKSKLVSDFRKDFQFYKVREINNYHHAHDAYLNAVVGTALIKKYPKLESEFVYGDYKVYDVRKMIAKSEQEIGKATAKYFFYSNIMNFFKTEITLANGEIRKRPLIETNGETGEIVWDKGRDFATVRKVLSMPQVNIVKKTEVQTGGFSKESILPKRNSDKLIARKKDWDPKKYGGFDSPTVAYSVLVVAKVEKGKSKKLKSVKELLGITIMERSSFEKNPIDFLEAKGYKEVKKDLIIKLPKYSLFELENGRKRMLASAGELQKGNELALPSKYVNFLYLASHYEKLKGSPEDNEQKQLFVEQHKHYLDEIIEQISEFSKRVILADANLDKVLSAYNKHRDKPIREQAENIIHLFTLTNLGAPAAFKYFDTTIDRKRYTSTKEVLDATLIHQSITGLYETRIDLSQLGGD
substance,measurement,value
non-CRISPR structured RNA negative control,binding signal,55 % bound

# Reference: patent US20220290132
